Experimental data taken from patent publication US20050089538A1 (IMMUNOMEDICS, published 2005).

T1: carcinoembryonic antigen (human, UniProt P06731 35-685, limits assumed)
T1 construct: CEA sample fixed to a solid support, directly or through a capture antibody such as MN-15; also called CEA
T1 sequence (looked up): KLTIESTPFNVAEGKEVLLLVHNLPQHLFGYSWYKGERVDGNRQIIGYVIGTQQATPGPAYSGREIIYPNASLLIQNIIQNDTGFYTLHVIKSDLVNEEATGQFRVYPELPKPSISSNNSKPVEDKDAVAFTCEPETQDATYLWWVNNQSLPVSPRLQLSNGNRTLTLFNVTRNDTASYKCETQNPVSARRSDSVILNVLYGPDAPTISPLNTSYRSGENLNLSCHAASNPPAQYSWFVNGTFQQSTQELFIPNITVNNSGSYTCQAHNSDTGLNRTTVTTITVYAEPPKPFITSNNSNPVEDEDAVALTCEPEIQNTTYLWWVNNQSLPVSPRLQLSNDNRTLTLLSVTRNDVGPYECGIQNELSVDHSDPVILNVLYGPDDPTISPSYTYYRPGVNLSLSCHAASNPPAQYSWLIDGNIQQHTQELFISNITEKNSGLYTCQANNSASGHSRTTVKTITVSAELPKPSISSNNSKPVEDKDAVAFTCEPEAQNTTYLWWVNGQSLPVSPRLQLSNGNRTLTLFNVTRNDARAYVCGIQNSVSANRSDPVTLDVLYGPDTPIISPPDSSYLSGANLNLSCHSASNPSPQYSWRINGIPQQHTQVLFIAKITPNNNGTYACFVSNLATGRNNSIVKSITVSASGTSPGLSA


Assays:
carcinoembryonic antigen [1] = biological target: T1, carcinoembryonic antigen; assay: MN-14 blocking assay on CEA, competitor HRP-labeled MN-14 (FIG. 9)
Procedure: (§1) The humanized KLHuVH varients, such as antibody KLHuVHAIGA/HuVK, were purified and tested in a blocking assay carried out as follows. Antibodies were added at the indicated concentrations together with HRP-labeled MN-14 to a final volume of 0.1 ml. Following 30 mins. of incubation at 37₁C, and washing to remove unbound antibodies, the relative affinities of the antibodies were determined from the remaining bound peroxidase activity. A shown by the assay data of FIG. 9, the activity of the “reshaped” (i.e., CDR-engrafted on FR) humanized antibody was similar to that of chimeric and murine positive controls.

carcinoembryonic antigen [2] = biological target: T1, carcinoembryonic antigen; assay: MN-14 blocking assay on CEA, unlabelled murine MN-14 against HRP-labeled MN-14 (FIG. 9)
Procedure: as §1

binding result (carcinoembryonic antigen [1])	binding result (carcinoembryonic antigen [2])	Binder
binds		chimeric MN-14 antibody (MN-14 mouse VH and VK joined to human IgG1 and human kappa constant regions) (antibody, V domains shown, Human IgG1 constant region (Takahashi et al.) and human kappa constant region (Hieter et al.); The variable regions were re-amplified with primers VH1BACK/VH1FOR and VK8BACK/VK3FOR, so their terminal residues may be dictated by the primers; also called chimeric control; chimeric antibody) VH: EVKLLESGGGLVQSGGSLKLSCAASGFDFTTYWMSWVRQAPGKGLEWIGEIHPDSSTINYAPSLKDKFIVSRDNAKNTLYLQMSKVRSEDTALYYCASLYFGFPWFAYWGQGTPVTVSA VL: EIQLTQSHKMMSTSVGDRVSITCKASQDVGTSVAWYQQRPGQSPKLLIYWTSTRHTGVPDRFTGSVSGTDFTLTITNVQSEDLADYFCQQYSLYRSFGGGTKLEIK
	binds	murine anti-CEA IgG1 monoclonal antibody MN-14 (antibody, V domains shown, Murine kappa IgG1; also called mMN-14; murine control) VH: EVKLLESGGGLVQSGGSLKLSCAASGFDFTTYWMSWVRQAPGKGLEWIGEIHPDSSTINYAPSLKDKFIVSRDNAKNTLYLQMSKVRSEDTALYYCASLYFGFPWFAYWGQGTPVTVSA VL: EIQLTQSHKMMSTSVGDRVSITCKASQDVGTSVAWYQQRPGQSPKLLIYWTSTRHTGVPDRFTGSVSGTDFTLTITNVQSEDLADYFCQQYSLYRSFGGGTKLEIK
